This is an account of results in PMC2864300, “Regulation of NOXO1 Activity through Reversible Interactions with p22^phox and NOXA1” (PLoS ONE, 2010).

Where two headings read alike, the source gives them in different places.

Experiment [1] concerns the target p67^phox. To be noted: cited from earlier work. An excerpt:
The phagocytic oxidase is still the best characterized member of this protein family and consists of a heterodimeric flavocytochrome (containing NOX2 and p22^phox) that makes up the catalytic core of the enzyme plus the cytosolic regulatory subunits p40^phox, p47^phox and p67^phox and the small GTPase Rac, [16]–[18]. Because excessive ROS production is cytotoxic and can induce a number of pathological processes, complicated regulatory mechanisms have evolved that tightly control the activity of the phagocytic oxidase. […] To gain further insight into the molecular basis of complex formation between these two proteins we measured binding of the human and mouse NOXA1-SH3 ... || In the phagocytic oxidase the p47^phox-p67^phox interaction is unusually strong (Kd of 20 nM), [26], due to the presence of two protein interfaces: contacts are made via the conserved PxxPxR motif (at amino acids 363–368), but also via an additional surface composed of residues 369–390 of p47^phox, which fold into a helix-turn-helix (HTH) motif and pack against β-sheets 2, 3 and 4 of SH3B p67^phox. Removal of this additional binding motif reduces the affinity for p67^phox to 20 µM.

In experiment [2] the test system is SH3 domain of NOXA1. Conditions: GST pull-downs; cited from earlier work. An excerpt:
To gain further insight into the molecular basis of complex formation between these two proteins we measured binding of the human and mouse NOXA1-SH3 ...

For experiment [3], the system named is NOXA1. To be noted: COS cells; cited from earlier work.
Experiment [4] has as its target murine p22^phoxC. Put plainly: ITC, binding to mouse p22phox cytoplasmic domain. The method, then:
Complex formation between NOXO1, NOXA1 and p22^phox fragments or peptides were measured by isothermal titration calorimetry using a MicroCal VP-ITC calorimeter (MicroCal Inc., Northampton, USA). All proteins were dialysed against ITC buffer (150 mM NaCl, 1 mM DTT and 50 mM HEPES, pH 7.4) and performed at 18°C. All peptides were dissolved in ITC buffer. Typically, 20–40 µM of protein in the cell was titrated by stepwise injections of a total of 200–300 µM of the ligand. Heats of dilution were determined by titrating protein or peptide into ITC buffer and subtracted from the raw ITC data prior to analysis with the software, Origin version 7.0, assuming a single-site binding model. Data were averaged over three to five experiments.
In general terms: ITC needs no label: the signal is the heat of the interaction.

B1: p47^phox: cytosolic regulatory subunit of the phagocytic NADPH oxidase (protein, UniProt P14598 1-390, looked up)
Neutrophil cytosol factor 1: MGDTFIRHIALLGFEKRFVPSQHYVYMFLVKWQDLSEKVVYRRFTEIYEFHKTLKEMFPIEAGAINPENRIIPHLPAPKWFDGQRAAENRQGTLTEYCSTLMSLPTKISRCPHLLDFFKVRPDDLKLPTDNQTKKPETYLMPKDGKSTATDITGPIILQTYRAIANYEKTSGSEMALSTGDVVEVVEKSESGWWFCQMKAKRGWIPASFLEPLDSPDETEDPEPNYAGEPYVAIKAYTAVEGDEVSLLEGEAVEVIHKLLDGWWVIRKDDVTGYFPSMYLQKSGQDVSQAQRQIKRGAPPRRSSIRNAHSIHQRSRKRLSQDAYRRNSVRFLQQRRRQARPGPQSPGSPLEEERQTQRSKPQPAVPPRPSADLILNRCSESTKRKLASAV
For B1, the Kd is 20000 nM in experiment [1] (additional binding motif (residues 369–390 of p47^phox) removed, ref [25], [26], read-out: affinity for p67^phox after removal of additional binding motif) and 20 nM in experiment [1] (interaction with C-terminal SH3 domain of p67^phox, ref [25]–[27], read-out: affinity for p67^phox).

B2: NOXO1: NOX organizing protein 1 (protein, UniProt Q8NFA2 1-376, looked up)
NADPH oxidase organizer 1: MAGPRYPVSVQGAALVQIKRLQTFAFSVRWSDGSDTFVRRSWDEFRQLKKTLKETFPVEAGLLRRSDRVLPKLLGQASLDAPLLGRVGRTSRGLARLQLLETYSRRLLATAERVARSPTITGFFAPQPLDLEPALPPGSRVILPTPEEQPLSRAAGRLSIHSLEAQSLRCLQPFCTQDTRDRPFQAQAQESLDVLLRHPSGWWLVENEDRQTAWFPAPYLEEAAPGQGREGGPSLGSSGPQFCASRAYESSRADELSVPAGARVRVLETSDRGWWLCRYGDRAGLLPAVLLRPEGLGALLSGTGFRGGDDPAGEARGFPEPSQATAPPPTVPTRPSPGAIQSRCCTVTRRALERRPRRQGRPRGCVDSVPHPTTEQ
Take B2: the “binding to the SH3 domain of NOXA1” value in experiment [2] is “failed to bind the SH3 domain of NOXA1”. Moreover, the “co-immunoprecipitation of NOXO1 and NOXA1” value in experiment [3] was “both proteins could be co-immunopricipitated from COS cells”.

B3: Mouse NOXO1 SH3AB–E: tandem SH3 domains plus the C-terminal portion of NOXO1 (mouse) (protein)
chain: QSIPCVQPFHTLDIRDRPFHTKAQEILDILLRHPSGWWLVENKDQQVAWFPAPYLEEVATCQGQESGLALQGSGRQFCTTQAYEGSRSDELSVPSGARVHVLETSDRGWWLCRYNGRTGLLPAMSLQPEGLGSLLGRPGFPDSAGADKVAEDRTIPPVVPTRPCMSAIQSRCCSITRRALGQEQGTRVPR
modifications: left off: GST, end not stated, cleaved
In experiment [4] (ITC, 18°C, 150 mM NaCl, 1 mM DTT, 50 mM HEPES, pH 7.4, mouse p22^phoxC in syringe, NOXO1 construct in cell, averaged over three to five experiments, NB = no binding), B3 returned a Kd of 780 ± 60 nM. The same molecule had a ΔH in experiment [4] (ITC, 18°C, pH 7.4, mouse p22^phoxC in syringe, NB = no binding) of -7.1 ± 0.05 kcal/mol. The “fold weakening of binding to p22^phox” value in experiment [4] (mouse SH3AB–E in comparison to the tandem SH3 domains) is on record as “around 10 -fold”.
